This assay has as its target T1, OsSPX4^1–321 (rice, UniProt Q10B79 1-320).
T1 chain: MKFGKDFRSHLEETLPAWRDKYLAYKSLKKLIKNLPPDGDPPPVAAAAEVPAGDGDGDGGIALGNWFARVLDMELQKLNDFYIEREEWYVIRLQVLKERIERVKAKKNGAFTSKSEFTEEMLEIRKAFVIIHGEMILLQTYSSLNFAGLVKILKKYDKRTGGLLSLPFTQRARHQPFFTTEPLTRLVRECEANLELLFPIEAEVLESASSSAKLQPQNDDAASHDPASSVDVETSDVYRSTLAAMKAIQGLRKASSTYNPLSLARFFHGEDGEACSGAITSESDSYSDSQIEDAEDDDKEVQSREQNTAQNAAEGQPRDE
Kind of assay: ITC; 5PP-InsP5 (InsP7) 100 uM.

For orientation: Kd means the free concentration of one partner at which half of the binding sites on the other are occupied at equilibrium, for simple one-to-one binding. Low values mean higher affinity, high ones lower affinity.

B1: full-length OsPHR2 (OsPHR2^1-426, wild type) (natural protein)
chain: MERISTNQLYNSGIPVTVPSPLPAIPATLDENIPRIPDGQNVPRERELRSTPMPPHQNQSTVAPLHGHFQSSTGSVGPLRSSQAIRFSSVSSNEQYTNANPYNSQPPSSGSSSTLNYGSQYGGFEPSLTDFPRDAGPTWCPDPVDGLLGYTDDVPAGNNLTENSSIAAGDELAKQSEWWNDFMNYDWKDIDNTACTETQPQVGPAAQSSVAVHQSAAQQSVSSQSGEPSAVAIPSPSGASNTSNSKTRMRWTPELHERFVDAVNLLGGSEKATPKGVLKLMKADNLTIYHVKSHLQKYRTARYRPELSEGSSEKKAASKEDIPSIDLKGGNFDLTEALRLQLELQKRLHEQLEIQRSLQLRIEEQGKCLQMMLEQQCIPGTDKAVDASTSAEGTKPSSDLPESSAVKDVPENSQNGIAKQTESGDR
As to B1, the dissociation constant Kd is 3.05 µM.

The record behind these values is article PMC7810988 (2019).
